Source: patent publication US20080166749A1, “Fluorescent Protein Sensors of Post-Translational Modifications” (INVITROGEN CORPORATION, priority 1998, published 2008)
Where no end group is shown, it is not given here.

Legend:
Format in all cases: biochemical
PKC ζ = target: T1, PKC ζ (Homo sapiens, UniProt Q05513); experiment: Rate of phosphorylation of GFP PKC substrates, ^32P incorporation; details: 5 micromolar GFP mutant, 0.2 μg PKC isoform, 30 minutes at 30° C.
T1 sequence (Q05513 1-592): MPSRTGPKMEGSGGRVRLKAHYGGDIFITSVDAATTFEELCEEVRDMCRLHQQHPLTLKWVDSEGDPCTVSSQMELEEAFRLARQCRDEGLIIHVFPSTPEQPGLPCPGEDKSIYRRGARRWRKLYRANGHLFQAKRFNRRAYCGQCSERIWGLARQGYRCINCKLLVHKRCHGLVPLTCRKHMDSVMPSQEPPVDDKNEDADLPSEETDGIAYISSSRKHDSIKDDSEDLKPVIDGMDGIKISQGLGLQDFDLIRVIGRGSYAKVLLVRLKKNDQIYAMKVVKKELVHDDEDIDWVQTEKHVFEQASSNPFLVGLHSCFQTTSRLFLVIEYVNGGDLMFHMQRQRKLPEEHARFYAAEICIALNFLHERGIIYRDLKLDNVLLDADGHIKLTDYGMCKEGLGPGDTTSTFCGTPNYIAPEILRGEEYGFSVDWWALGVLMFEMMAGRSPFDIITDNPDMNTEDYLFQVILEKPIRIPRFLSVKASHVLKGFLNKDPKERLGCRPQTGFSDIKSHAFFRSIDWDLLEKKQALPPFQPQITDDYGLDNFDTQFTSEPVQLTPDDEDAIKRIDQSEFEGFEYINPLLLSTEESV
Description: (§1) The rates of phosphorylation of GFP having PKC motifs were determined by measuring ^32P incorporation in the presence of different PKC isoforms (Table XIII). These examples include one example where a membrane association motif is part of the GFP mutant.
(§2) These experiments were performed by incubating the indicated GFP mutant (5 micromolar) with the indicated PKC isoform (0.2 μg) for 30 minutes at 30° C. in 25 mM TRIS pH 7.5, 1 mM DTT, 10 mM MgCl2 0.1 mM ATP 20 μg/ml phosphatidylserine, 10 μM OAG, 200 μM CaCl2 (for PKCα) and 1 mM EGTA (for PKCs ε and ζ). […] The relative specificities identified for the GFP substrates in this experiment broadly matched those identified by Nishikawa et al (1997) who used non-GFP peptides to selectively measure PCK isoform activity. […] Membrane association motif poly-Lys (hepta-Lys) was added to the C-terminus of GFP mutant K8 with PKC alpha phosphorylation motif at the N-terminus.

PKC ε = target: T2, PKC ε (Homo sapiens, UniProt Q02156); experiment: as above; details: 5 micromolar GFP mutant, 0.2 μg PKC isoform, 30 minutes at 30° C.
T2 sequence (Q02156 1-737): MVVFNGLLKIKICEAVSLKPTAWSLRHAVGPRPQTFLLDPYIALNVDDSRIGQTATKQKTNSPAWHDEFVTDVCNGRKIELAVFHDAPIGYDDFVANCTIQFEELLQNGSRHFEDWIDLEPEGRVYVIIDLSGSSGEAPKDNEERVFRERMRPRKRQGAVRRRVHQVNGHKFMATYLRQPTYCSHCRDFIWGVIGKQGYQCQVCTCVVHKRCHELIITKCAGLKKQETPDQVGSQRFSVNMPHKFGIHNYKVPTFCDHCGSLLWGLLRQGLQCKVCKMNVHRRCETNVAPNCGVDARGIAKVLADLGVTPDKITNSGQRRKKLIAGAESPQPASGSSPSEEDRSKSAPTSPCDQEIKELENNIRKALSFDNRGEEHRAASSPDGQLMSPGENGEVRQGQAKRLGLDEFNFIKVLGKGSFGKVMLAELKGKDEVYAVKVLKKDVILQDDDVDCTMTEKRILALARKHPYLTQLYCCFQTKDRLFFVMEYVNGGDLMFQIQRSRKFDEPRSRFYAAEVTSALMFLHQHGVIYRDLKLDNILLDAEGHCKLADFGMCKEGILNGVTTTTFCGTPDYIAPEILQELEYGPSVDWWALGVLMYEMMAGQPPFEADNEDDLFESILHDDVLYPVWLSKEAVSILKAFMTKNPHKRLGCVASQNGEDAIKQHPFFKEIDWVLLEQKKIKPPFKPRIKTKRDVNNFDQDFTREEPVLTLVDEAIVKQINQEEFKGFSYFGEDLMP
Description: as §1, §2

PKC alpha = PKC alpha (Homo sapiens, UniProt P17252); experiment: as above; details: 5 micromolar GFP mutant, 0.2 μg PKC isoform, 30 minutes at 30° C.
Description: as §1, §2

PKA = PKA (Mus musculus, UniProt P05132); experiment: GFP mutant K8 quenching assay with protein kinase A inhibitors; details: 1 mM versus 0.1 mM ATP
Description: The protein kinase A inhibitors PKI (protein kinase A heat-stable inhibitor, isoform alpha (Calbiochem #539488) and H-89 (N-[2-((p-bromocinnamyl)amino)ethyl]-5-isoquinoline sulfonamide, HCl) (Calbiochem #371963) were tested in the preferred assay condition to determine if they could be detected using the GFP mutant K8 quenching assay. Both compounds were tested individually (between 0.1 and 1,000 nM) and pre-incubated with PKA in the absence of mutant K8 for 10 minutes at 4° C. Then, GFP mutant K8 was added to a final concentration of 4 μM and the mixtures were incubated for thirty minutes at 30° C. The kinase reactions were terminated by the addition of the preferred acetate quenching conditions (100 mM acetate, 100 mM NaCl, pH 5.0, 25 mM beta-glycerol phosphate). The fluorescence of these samples was measured 14 to 16 hours later. The results of these studies establish that the GFP mutant K8 quenching assay can be used to detect kinase inhibitors and further validates the methodology for drug screening.
The protein kinase A inhibitor H-89 was tested in the GFP mutant K8 kinase assay at two different ATP concentrations (0.1 mM and 1 mM). […] Because the GFP kinase assay can be performed at both high and low ATP concentrations, this method can be used to identify, measure, and detect ATP antagonists. […]

Compound | Kinase and Activity (CPM), PKC ζ (PKC ζ) | Kinase and Activity (CPM), PKC ε (PKC ε) | Kinase and Activity (CPM), PKC alpha (PKC alpha) | inhibition of kinase activity at the higher ATP concentration (PKA)
Pkc 7: GFP mutant K8 with PKC ζ motif Arg Arg Phe Lys Arg GIn Gly Ser Phe Phe (RRFKRQGSFF; not fully specified; printed as Arg Arg Phe Lys Arg GIn Gly Ser Phe Phe) | 8,421 CPM | 12,688 CPM | 4,745 CPM | –
Pkc 8: GFP mutant K8 with PKC μ motif Ala Ala Leu Val Arg GIn Met Ser Val Ala (AALVRQMSVA; not fully specified; printed as Ala Ala Leu Val Arg GIn Met Ser Val Ala) | 14,606 CPM | 20,259 CPM | 5.230 CPM | –
Cl.O=S(=O)(NCCNCC=Cc1ccc(Br)cc1)c1cccc2cnccc12 [H-89, N-[2-((p-bromocinnamyl)amino)ethyl]-5-isoquinoline sulfonamide, HCl] | – | – | – | much less efficient at inhibiting kinase activity
